# Source: PMC3431306 (2012)
# B1: FIV CA N-terminal domain (CA^N) (domain or fragment)
# chain: PIQTVNGVPQYVALDPKMVSIFMEKAREGLGGEEVQLWFTAFSANLTPTDMATLIMAAPGCAADKEILDESLKQLTAEYDRTHPPDAPRPLPYFTAAEIMGIGLTQEQQAEARFAPARMQCRAWYLEALGKLAAIKAKS
# B2: HIV-2 CA N-terminal domain (CA^N) (domain or fragment)
# chain: not shown
# How the values were obtained:
# [1] = target: CPSF6_(313–327) peptide (cleavage and polyadenylation specific factor 6, residues 313–327) (UniProt Q16630-2 313-327, N-terminal His tag omitted; strain not given, isolate Petaluma taken; CA residues 1-139 by alignment to HIV-1 CA 1-146); assay: ITC
# [2] = target: CPSF6_(313–327) peptide (cleavage and polyadenylation specific factor 6, residues 313–327) (UniProt Q16630-2 313-327); assay: ITC
Binder,Kd [1] [µM],Kd [2] [µM]
B1,242,–
B2,–,350
